Paper PMC5717197, “Mechanistic insight into TRIP13-catalyzed Mad2 structural transition and spindle checkpoint silencing” (Nature Communications, 2017)
Substitutions are numbered along the chain they refer to.

B1: MBP1 peptide (peptide)
peptide: SWYSYPPPQRAVC
notes: Coupled to SulfoLink Coupling Resin in the bead assays; source: synthetic peptide (Protein Chemistry Technology Core, UTSW)
B2: TRIP13 wild type (enzyme, human, UniProt Q15645 1-432, looked up)
chain: MDEAVGDLKQALPCVAESPTVHVEVHQRGSSTAKKEDINLSVRKLLNRHNIVFGDYTWTEFDEPFLTRNVQSVSIIDTELKVKDSQPIDLSACTVALHIFQLNEDGPSSENLEEETENIIAANHWVLPAAEFHGLWDSLVYDVEVKSHLLDYVMTTLLFSDKNVNSNLITWNRVVLLHGPPGTGKTSLCKALAQKLTIRLSSRYRYGQLIEINSHSLFSKWFSESGKLVTKMFQKIQDLIDDKDALVFVLIDEVESLTAARNACRAGTEPSDAIRVVNAVLTQIDQIKRHSNVVILTTSNITEKIDVAFVDRADIKQYIGPPSAAAIFKIYLSCLEELMKCQIIYPRQQLLTLRELEMIGFIENNVSKLSLLLNDISRKSEGLSGRVLRKLPFLAHALYVQAPTVTIEGFLQALSLAVDKQFEERKKLAAYI
notes: TRIP13, human; its own AUC and gel filtration show no discrete oligomer; also called TRIP13 WT; source: E. coli BL21 (DE3), purified (Ni-NTA, TEV, Resource Q, Superdex 200); not shown: His6, N-terminal, cleaved
B3: TRIP13 G320A (enzyme, human, UniProt Q15645 1-432, looked up)
chain: B2 chain with G320A
notes: TRIP13, human; source: E. coli BL21 (DE3), purified (Ni-NTA, TEV, Resource Q, Superdex 200); not shown: His6, N-terminal, cleaved
B4: Cdc20N-His6 (residues 1-170 of human Cdc20) (domain or fragment, UniProt Q12834 1-170, looked up)
chain: MAQFAFESDLHSLLQLDAPIPNAPPARWQRKAKEAAGPAPSPMRAANRSHSAGRTPGRTPGKSSSKVQTTPSKPGGDRYIPHRSAAQMEVASFLLSKENQPENSQTPTKKEHQKAWALNLNGFDVEEAKILRLSGKPQNAPEGYQNRLKVLYSQKATPGSSRKTCRYIPS
notes: Cdc20, human, residues 1-170; Coupled to SulfoLink Coupling Resin in the bead assays; also called Cdc20 N-terminal 170-residue fragment; source: E. coli BL21 (DE3), purified from 8 M urea (Ni-NTA), dialysed

Key:
[1] = biological target: T1, His6-Mad2 (containing the C79S and C106S mutations) (human, UniProt Q13257 1-205, C79S | C106S); experiment: pull-down; Mad2 dissociation assay: MBP1 or Cdc20N coupled to SulfoLink resin, loaded with His6-Mad2 (0.5 mg/ml), washed, then TRIP13 and ΔN35-p31comet with 1 mM ATP for 30-60 min; Reaction Buffer (25 mM Tris pH 7.5, 200 mM NaCl, 10 mM MgCl2, 1 mM DTT, 5% glycerol, 0.05% Tween), room temperature; bound proteins by SDS-PAGE and Coomassie; settings: both partners purified
T1 construct: Mad2, human; C79S and C106S to avoid disulfide formation in vitro; The His6 tag was not cleaved; also called C-Mad2; source: E. coli BL21 (DE3), purified (Ni-NTA, Resource Q, Superdex 200 Increase); not shown: His6, N-terminal, kept

[2] = biological target: the molecule itself; experiment: SEC; gel filtration column in the presence of ATP

T1 sequence (Q13257 whole entry C79S/C106S): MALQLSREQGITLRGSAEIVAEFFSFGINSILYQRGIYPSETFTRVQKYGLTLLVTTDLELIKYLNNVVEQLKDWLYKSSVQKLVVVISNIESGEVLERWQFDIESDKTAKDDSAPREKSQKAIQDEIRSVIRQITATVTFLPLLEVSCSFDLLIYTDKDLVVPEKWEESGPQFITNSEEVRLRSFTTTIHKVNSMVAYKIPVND

Binder	binding result [1]	binding result [2]
B1	binds	–
B2	–	binds
B3	–	binds
B4	binds	–
